How the values were obtained:
[1] = target: T1, FtsZ C-terminal tail peptide C-terminal tail peptide (Escherichia coli, UniProt P0A9A6); test: ITC
T1 chain: KEPDYLDIPAFLRKQAD

[2] = target: the molecule itself; test: analytical ultracentrifugation (sedimentation velocity)

B1: ZapC (protein)
chain: not shown
[1]
  Kd: 32 µM
[2]
  Kd: ~30 µM

Source: PMC4686002 (2015)
